Experimental findings from patent publication US20060078537A1 are described below.

In the experiment the target is human CCR5 (human) (UniProt P51681). In words: cell-based or functional assay.
human CCR5 (human), sequence (P51681 whole entry): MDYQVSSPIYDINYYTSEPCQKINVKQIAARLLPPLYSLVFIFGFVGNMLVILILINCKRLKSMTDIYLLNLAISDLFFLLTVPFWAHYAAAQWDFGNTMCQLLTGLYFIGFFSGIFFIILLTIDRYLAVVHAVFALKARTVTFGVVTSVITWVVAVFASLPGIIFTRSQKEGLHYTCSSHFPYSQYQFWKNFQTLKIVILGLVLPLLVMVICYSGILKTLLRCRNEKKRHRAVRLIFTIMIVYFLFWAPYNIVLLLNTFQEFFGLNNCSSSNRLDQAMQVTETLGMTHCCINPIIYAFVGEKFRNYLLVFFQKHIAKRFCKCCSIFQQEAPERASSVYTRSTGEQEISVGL

In the case of “AOP-RANTES (from UniProt P13501 24-91) (ligand)”, the CCR5 receptor downmodulation on CHO cells expressing CCR5 (FACS) at 1 nM AOP-RANTES is 50% and the CCR5 receptor downmodulation on CHO cells expressing CCR5 (FACS) at 100 nM AOP-RANTES was determined as 90%.
